For this assay, the target named is His-importin 7 (Xenopus laevis) (Xenopus laevis). Kind of assay: differential scanning fluorimetry; His-tagged NTR at 0.5 μM in TPB with 2 mM DTT, His-NOSIP or Ubc9 titrated in 18 steps from 0.05 to 5 μM, 5x SYPRO Orange, 25 to 90 °C; Tm plotted against concentration, exponential fit. Background: Differential scanning fluorimetry follows unfolding on heating by fluorescence.

From PMC9974451 come the findings set out here.

Usually Kd stands for the free concentration of one partner at which half of the binding sites on the other are occupied at equilibrium, for simple one-to-one binding. A low value points to higher affinity.

B1: His-NOSIP (natural protein)
chain: MTRHGKNCTAGAVYTYHEKKKDTAASGYGTQNIRLSRDAVKDFDCCCLSLQPCHDPVVTPDGYLYEREAILEYILHQKKEIARQMKAYEKQRGTRREEQKELQRAASQDHVRGFLEKESAIVSRPLNPFTAKALSGTSPDDVQPGPSVGPPSKDKDKVLPSFWIPSLTPEAKATKLEKPSRTVTCPMSGKPLRMSDLTPVHFTPLDSSVDRVGLITRSERYVCAVTRDSLSNATPCAVLRPSGAVVTLECVEKLIRKDMVDPVTGDKLTDRDIIVLQRGGTGFAGSGVKLQAEKSRPVMQA
Take B1: the Kd is 447 nM.
